Measured values reported in patent US20250042994A1 (HAINAN SIMCERE ZAIMING PHARMACEUTICAL, published 2025).
Numbering of substitutions follows the chain as printed.

T1: human CD19 on Raji cells (human, UniProt P15391 20-556)
T1 construct: whole, on cells
T1 sequence (looked up): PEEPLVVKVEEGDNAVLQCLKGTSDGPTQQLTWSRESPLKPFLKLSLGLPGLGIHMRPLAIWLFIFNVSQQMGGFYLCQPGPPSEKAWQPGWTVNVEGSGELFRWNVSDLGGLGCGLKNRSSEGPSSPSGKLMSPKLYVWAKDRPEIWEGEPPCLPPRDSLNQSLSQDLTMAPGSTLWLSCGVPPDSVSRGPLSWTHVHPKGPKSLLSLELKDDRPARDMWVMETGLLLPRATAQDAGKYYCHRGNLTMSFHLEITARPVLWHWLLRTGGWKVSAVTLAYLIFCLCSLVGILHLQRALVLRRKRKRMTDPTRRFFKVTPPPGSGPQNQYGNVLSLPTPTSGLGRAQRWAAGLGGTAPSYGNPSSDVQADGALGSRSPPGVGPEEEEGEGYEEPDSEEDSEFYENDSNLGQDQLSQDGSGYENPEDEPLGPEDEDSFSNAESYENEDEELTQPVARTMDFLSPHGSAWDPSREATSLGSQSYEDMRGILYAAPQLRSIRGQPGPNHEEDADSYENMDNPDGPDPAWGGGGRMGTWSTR

T2: human CD19 on CHO-K1-human CD19 cells (human, UniProt P15391 20-556)
T2 construct: whole, on cells; also called CHO-K1-human CD19-2C8
T2 sequence (looked up): T1 sequence (looked up)

T3: Human CD19-his protein (human, UniProt P15391 20-291)
T3 construct: bought protein; also called recombinant human CD19-His; CD19 full-length protein; not shown: His tag
T3 sequence (looked up): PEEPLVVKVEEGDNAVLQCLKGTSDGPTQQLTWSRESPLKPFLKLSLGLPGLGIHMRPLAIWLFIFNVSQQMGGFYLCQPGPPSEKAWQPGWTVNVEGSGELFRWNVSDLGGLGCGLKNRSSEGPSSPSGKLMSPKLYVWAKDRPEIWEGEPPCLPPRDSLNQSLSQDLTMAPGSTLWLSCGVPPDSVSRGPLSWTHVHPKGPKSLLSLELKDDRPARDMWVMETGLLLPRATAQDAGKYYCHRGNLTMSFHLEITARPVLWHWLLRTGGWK

B1: F5.7.1 (antibody, human IgG1, V domains shown)
VH: QVTLKESGPGILQPSQTLSLTCSFSGFSLTTFGMGVGWIRQPSGKGLEWLTHIWWDDDKYYNPALKSRLTISKDTSKNQVFLRIANVDTADTATYYCARVITTGVPYFDYWGQGTTLTVSS
VL: ENVLTQSPAIMSASPGEKVTMTCRASSSVSSSYLYWYQQKSGASPKLWISSTSNLASGVPARFSGSGSGTSYSLTINSVEAEDAATYYCQQYSGYPWTFGGGTKLEIK
notes: human-murine chimeric antibody, human IgG1
B2: F4.180.1 (antibody, human IgG1, V domains shown)
VH: EVQLQQSAPELVKPGASVKMSCKTSGYTFTENIIHWVKQTHGKSLEWIGGINPDNGGTSYHQKFKGRTTLTIDKSSSTAYMELRSLTSDDSAVFFCARQAPLYWYFDIWGAGTTVTVSS
VL: DIVLTQSPASLAVSLGQRATISCRASESVDSYGNSLMHWFQQKPGQPPRLLIYRASNLESGIPARFSGSGSRTDFTLTITPVEADDVATYYCQQSNEDPWTFGGGTKLEIK
notes: as for B1
B3: F6.5.20 (antibody, human IgG1, V domains shown)
VH: QVQLQQPGAELVKPGASVKLSCKASGYTFTSYWMQWVKQRPGQGLEWIGEIDPSDSYTNYNQKFKGKASLTVDTSSSTAYMQLSSLTSEDSAVYYCARWGLLRNYYVMDYWGQGTSVTVSS
VL: EIVLTQSPTTMAASPGEKITITCSASSSISSNYLHWYQQKPGFSPKLLIYRTSNLASGVPARFSGSGSGTSYSLTIGTMEAEDVATYYCQQGSSIPRMLTFGAGTKLELK
notes: as for B1
B4: F6.2.9 (antibody, human IgG1, V domains shown)
VH: QVQLQQSGAELVKPGASVKISCKASGYAFSSYWMNWVKQRPGKGLEWIGQIYPGDGDTNYNGKFKGKATLTADKSSSTGYMQLSSLTSEDSAVYFCARSRITSVVDWYFDVWGTGTTVTVSS
VL: QIVLSQSPAILSASPGEKVTMTCRASSSVSYMHWYQQKPGSSPKPWIYATSNLASGVPARFSGSGSGTSYSLTISRVEAEDAATYYCQQWSSNPPTFGAGTKLELK
notes: as for B1
B5: F4.15.9 (antibody, human IgG1, V domains shown)
VH: QVQLQQSGPELVKPGASVKISCKASGYAFSSSWMNWLKQRPGQGLEWIGRIYPGDGDTNYNGKFKGKATLTADESSSTAYMQLSSLTSVDSAVYFCARGITTIITIAWFASWGQGTLVTVSA
VL: B4 VL with A9T, A59P, E78G, N93D, P95W, A99G, L105I
notes: as for B1
B6: F4.125.12 (antibody, human IgG1, V domains shown)
VH: EVKLVESGGGLVQPGGSLKLSCAASGFTFSTYTMSWVRQTPEKRLEWVAFISSGGGHINYPDTVKGRFTISRDNAKNTLYLQMSSLKSEDTAMYYCARHSYWFFDVWGAGTTVTVSS
VL: DVQITQSPSYLAASPGETITINCRASKNIDTYLAWYQEKPGKTNKLLIYSGSTLQSGIPSRFRGGGSGTDFTLTICSLEPEDFAMYYCQQHNEYPLTFGAGTKLELK
notes: as for B1
B7: F4.145.9 (antibody, human IgG1, V domains shown)
VH: EVQLVESGGGLVKPGGSLKLSCAAAGFAFSSYDMSWVRQIPEKRLEWVAYISAGGGNTYFLDTVKGRFTISRDHAKNTLSLQMSSLKSEDTAMYFCVRHGDYYRYFYAMDYWGQGSSVTVSS
VL: DIVMTQSHKFMSTSVGDRVSITCKASQDVGTAVAWSQQKPGQSPKLLIYWASTRHTGVPDRFTGSGSGTDFTLTISNVQSEDLADYFCQQFVTYPYTFGGGTKLEIK
notes: as for B1
B8: F3.23.10 (antibody, human IgG1, V domains shown)
VH: EFQLQQSGPELVKPGASVKISCKASDYSFTDYNMNWVKQSNGASLEWIGIINPNFGSTSYNQKFKGKATLTVDQSSSTAFMQLNSLTSEDSAVYYCARSEYYGSSGFAYWGQGTLVTVSA
VL: DVVVTQTPLSLPVSFGDQVSISCRSSQSLVNSYGNTYLSWYLHKPGQSPQLLIYGISNRFSGVPDRFSGSGSGTDFTLKITTIKPEDLGMYYCLQGTHQPWTFGGGTKLEIK
notes: as for B1
B9: F5.11.2 (antibody, human IgG1, V domains shown)
VH: EVQLVESGGDLVKPGGSLKLSCAASGFTFSSYGMSWVRQTPDKRLEWVATISHGGSYTHYPDSVKGRFTISRDNAKNTLYLQMNSLKSEDTAMYYCVRLPITTVEAPYFFDYWGQGTTLTVSS
VL: DIQMTQTTSSLSASLGDRVTISCRASQDIRNYLNWYQQKPDGTVKLLIYYTSILHSGVPSRFSGSGSGTDYSLTINNLEQEDVATYFCQQGNTLYTFGGGTEVELR
notes: human-murine chimeric antibody, human IgG1 constant
B10: F3.23.10 (antibody, human IgG1, V domains shown)
VH: B8 VH
VL: B8 VL
notes: as for B9

Each binder was assayed against T1, human CD19 on Raji cells (assay: FACS on Raji cells).
Excerpt: (§1) The desired cells were scale-up cultured in a T-75 cell culture flask to the logarithmic growth phase. For the adherent cell CHO-K1, the medium was aspirated, the cells were washed 2 times with a PBS buffer, and then digested with trypsin. After the digestion was terminated, the cells were washed 2 times with a PBS buffer; and for suspension cell Raji, the supernatant of the medium was discarded by directly centrifugation, and the cell pellet was washed 2 times with PBS. After counting the cells in the previous step, the cell pellet was resuspended with [PBS+2% (w/w) BSA] blocking solution to 2×10⁶ cells/ml, and added to a 96-well FACS reaction plate at 50 μl/well, and then the sample to be tested was added at 50 μl/well, and incubated on ice for 2 h. The obtained mixture was centrifuged and washed 3 times with a PBS buffer. […] The obtained mixture was centrifuged and washed 5 times with a PBS buffer, and FACS (FACS Canto™, purchased from BD Company) was used for detection and result analysis. Data analysis was performed by software (FlowJo) to obtain the mean fluorescence intensity (MFI) of the cells. And then software (GraphPad Prism8) was used for analysis, data fitting, and EC50 value calculation. […] The same method was used to detect the binding of the chimeric antibodies to endogenous CD19-negative cells, MoLT4 cells (purchased from ATCC, CRL-1582), and CHO-K1 cells.

EC50 | Maximum mean fluorescence intensity | Binder
1.13 nM | 28700 | B1
0.96 nM | 23700 | B2
0.17 nM | 28600 | B3
0.98 nM | 21500 | B4
0.71 nM | 31300 | B5
0.51 nM | 27100 | B6
0.78 nM | 20000 | B7
4.77 nM | 14900 | B8

The binders below were run against T2, human CD19 on CHO-K1-human CD19 cells (assay: FACS on CHO-K1-human CD19 cells).
Excerpt: as §1

EC50 | Maximum mean fluorescence intensity | Binder
1.54 nM | 56200 | B1
1.24 nM | 49600 | B2
~0.17 nM | 48300 | B3
– | 10300 | B4
0.17 nM | 20500 | B5
0.48 nM | 51800 | B6
0.84 nM | 48500 | B7
3.59 nM | 50400 | B8

Each binder was assayed against T4, monkey CD19 on HEK293T-monkey CD19 cells (monkey) (assay: FACS on HEK293T-monkey CD19 cells).
T4 construct: whole, on cells
Procedure: as §1, with “After” for “The desired cells were scale-up cultured in a T-75 cell culture flask to the logarithmic growth phase. For the adherent cell CHO-K1, the medium was aspirated, the cells were washed 2 times with a PBS buffer, and then digested with trypsin. After”
HEK293T-monkey CD19 cells were subjected to FACS detection and data analysis according to the method in example 5.2. […] The same method was used to detect binding of the chimeric antibodies to HEK293T cells.

Maximum mean fluorescence intensity | EC50 | Binder
938 | – | B1
94 | – | B2
531 | – | B3
2130 | 86 nM | B4
14800 | – | B5
4080 | – | B6
108 | – | B7
77 | – | B8

What follows are binders tested against T3, Human CD19-his protein (assay: SPR Biacore, Ab captured on Protein A, CD19-His analyte).
Procedure: A sample buffer and a running buffer were HBS-EP+ (10 mM HEPES, 150 mM NaCl, 3 mM EDTA and 0.05% surfactant P20) (GE Healthcare; BR-1006-69). The flow-through cell was set to 25° C. The sample block was set to 16° C. Both were pretreated with the running buffer. In each cycle, an antibody to be detected was first captured with a Protein A chip, and then a single concentration of CD19 antigen protein was injected. The binding and dissociation processes of the antibody and the antigen protein were recorded, and finally Glycine pH 1.5 (GE Healthcare; BR-1003-54) was used to complete chip regeneration. The binding was measured by injecting different concentrations of recombinant human CD19-His proteins in a solution for 240 s with a flow rate of 30 μl/min. The concentration started from 200 nM (see the detailed results for the actual concentration in the test) and was diluted at 1:1, making a total of 5 concentrations. The dissociation phase was monitored for up to 600 s and was triggered by switching from sample solution to running buffer. The surface was regenerated by washing with a 10 mM glycine solution (pH 1.5) for 30 s at a flow rate of 30 μl/min. Bulk refractive index difference was corrected by subtracting the response obtained from the goat anti-human Fc surface. Blank injection was also subtracted (=double reference). For calculation of apparent KD and other kinetic parameters, Langmuir 1:1 model was used.

Kd | koff | kon | Binder
1.68 nM | 6.15e-05 s⁻¹ | 36600 M⁻¹ s⁻¹ | B9
5.24 nM | 0.000186 s⁻¹ | 35400 M⁻¹ s⁻¹ | B10
